The target of this test is T1, CD86Ig (UniProt P42081 24-247).
T1 construct: extracellular domain; Immobilized on BIAcore chips; also called soluble CD86Ig; B7-2
Nature of the test: SPR, CD86Ig immobilized, monomer against dimer. For orientation: Surface plasmon resonance follows binding to a sensor surface in real time, without labels.

T1 sequence (P42081 24-247): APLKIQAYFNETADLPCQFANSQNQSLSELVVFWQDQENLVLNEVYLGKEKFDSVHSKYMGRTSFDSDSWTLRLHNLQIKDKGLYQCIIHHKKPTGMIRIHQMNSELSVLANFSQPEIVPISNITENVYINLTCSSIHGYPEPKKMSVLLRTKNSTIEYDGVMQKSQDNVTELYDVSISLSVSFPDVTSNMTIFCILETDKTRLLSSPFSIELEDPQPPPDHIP

B1: L104EA29YXC120S (receptor)
chain: MHVAQPAVVLASSRGIASFVCEYASPGKYTEVRVTVLRQADSQVTEVCAATYMMGNELTFLDDSICTGTSSGNQVNLTIQGLRAMDTGLYICKVELMYPPPYYEGIGNGTQIYVIDPEPSPDSD
notes: also called single chain L104EA29Y extracellular domain
As to B1, the “fold lower binding affinity than the respective dimer (L104EA29YIg)” value was 35 to 80 fold.

(Values after patent US20070009511A1 (Bristol-Myers Squibb, published 2007).)
